Publication doi:10.1101/2022.12.22.521673 (bioRxiv, 2022)

T1: Bmh2 (S. cerevisiae (endogenous in meiotic …, UniProt P34730 1-273))
T1 sequence (looked up): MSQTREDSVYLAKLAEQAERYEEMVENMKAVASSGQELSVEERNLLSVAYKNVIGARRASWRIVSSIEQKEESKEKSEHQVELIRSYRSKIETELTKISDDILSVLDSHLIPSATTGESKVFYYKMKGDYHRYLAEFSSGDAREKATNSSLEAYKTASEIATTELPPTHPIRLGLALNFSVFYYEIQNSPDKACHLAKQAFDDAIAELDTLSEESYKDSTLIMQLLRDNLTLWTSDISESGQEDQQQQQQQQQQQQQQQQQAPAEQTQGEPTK

T2: recombinant Rim4-EGFP (S. cerevisiae, UniProt P38741 1-713)
T2 sequence (looked up): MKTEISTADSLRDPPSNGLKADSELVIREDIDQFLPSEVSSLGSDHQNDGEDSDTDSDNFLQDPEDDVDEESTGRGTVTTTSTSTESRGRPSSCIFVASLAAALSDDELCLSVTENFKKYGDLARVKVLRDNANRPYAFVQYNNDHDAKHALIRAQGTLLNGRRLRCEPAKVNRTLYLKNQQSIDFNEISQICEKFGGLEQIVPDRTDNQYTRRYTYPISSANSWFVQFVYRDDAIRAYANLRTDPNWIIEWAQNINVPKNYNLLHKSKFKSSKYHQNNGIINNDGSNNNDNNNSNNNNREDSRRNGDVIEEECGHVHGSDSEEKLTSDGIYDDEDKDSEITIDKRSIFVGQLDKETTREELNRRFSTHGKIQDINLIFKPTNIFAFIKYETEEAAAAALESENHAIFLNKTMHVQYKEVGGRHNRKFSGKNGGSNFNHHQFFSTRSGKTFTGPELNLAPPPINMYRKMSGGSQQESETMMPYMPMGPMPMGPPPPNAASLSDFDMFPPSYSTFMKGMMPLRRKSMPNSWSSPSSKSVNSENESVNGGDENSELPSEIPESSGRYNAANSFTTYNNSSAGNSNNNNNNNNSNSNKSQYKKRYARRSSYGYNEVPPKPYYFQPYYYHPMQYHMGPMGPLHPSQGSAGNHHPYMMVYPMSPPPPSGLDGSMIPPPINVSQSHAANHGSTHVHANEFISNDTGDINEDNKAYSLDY

T3: recombinant Rim4-6×His (S. cerevisiae, UniProt P38741 1-713)
T3 sequence (looked up): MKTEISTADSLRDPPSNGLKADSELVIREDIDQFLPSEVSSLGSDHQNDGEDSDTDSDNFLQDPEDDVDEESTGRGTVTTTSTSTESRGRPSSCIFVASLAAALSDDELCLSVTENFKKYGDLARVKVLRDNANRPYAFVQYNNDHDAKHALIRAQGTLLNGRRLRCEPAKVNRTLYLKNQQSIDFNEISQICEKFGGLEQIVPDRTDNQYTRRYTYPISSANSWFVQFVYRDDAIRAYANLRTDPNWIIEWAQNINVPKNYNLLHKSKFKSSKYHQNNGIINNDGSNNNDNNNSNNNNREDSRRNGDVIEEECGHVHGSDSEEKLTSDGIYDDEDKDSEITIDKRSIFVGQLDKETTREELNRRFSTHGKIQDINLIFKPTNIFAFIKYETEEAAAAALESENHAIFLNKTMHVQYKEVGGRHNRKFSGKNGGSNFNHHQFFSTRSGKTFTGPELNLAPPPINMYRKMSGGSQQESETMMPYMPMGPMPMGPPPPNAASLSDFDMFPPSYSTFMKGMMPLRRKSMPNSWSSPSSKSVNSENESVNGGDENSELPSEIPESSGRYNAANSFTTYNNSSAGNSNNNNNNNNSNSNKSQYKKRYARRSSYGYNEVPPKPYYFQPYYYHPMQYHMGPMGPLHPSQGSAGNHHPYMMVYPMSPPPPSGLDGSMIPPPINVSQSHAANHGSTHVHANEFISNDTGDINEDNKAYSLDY


Key:
[1] = target: Rim4-FLAG (S. cerevisiae) (UniProt P38741); experiment: mass photometry
[2] = target: T1, Bmh2; experiment: mass photometry
[3] = target: T2, recombinant Rim4-EGFP; experiment: pull-down
[4] = target: T3, recombinant Rim4-6×His; experiment: pull-down

stoichiometry N [1] | stoichiometry N [2] | binding result [3] | binding result [4] | Molecule
1 | – | – | – | Bmh2 (from UniProt P34730 1-273) (natural protein)
1 | 1 | – | – | Bmh1 (natural protein, UniProt P29311 1-267, looked up) MSTSREDSVYLAKLAEQAERYEEMVENMKTVASSGQELSVEERNLLSVAYKNVIGARRASWRIVSSIEQKEESKEKSEHQVELICSYRSKIETELTKISDDILSVLDSHLIPSATTGESKVFYYKMKGDYHRYLAEFSSGDAREKATNASLEAYKTASEIATTELPPTHPIRLGLALNFSVFYYEIQNSPDKACHLAKQAFDDAIAELDTLSEESYKDSTLIMQLLRDNLTLWTSDMSESGQAEDQQQQQQHQQQQPPAAAEGEAPK
– | – | binds | binds | recombinant Cdc14-FLAG (enzyme, S. cerevisiae, UniProt Q00684 1-551, looked up) MRRSVYLDNTIEFLRGRVYLGAYDYTPEDTDELVFFTVEDAIFYNSFHLDFGPMNIGHLYRFAVIFHEILNDPENANKAVVFYSSASTRQRANAACMLCCYMILVQAWTPHQVLQPLAQVDPPFMPFRDAGYSNADFEITIQDVVYGVWRAKEKGLIDLHSFNLESYEKYEHVEFGDFNVLTPDFIAFASPQEDHPKGYLATKSSHLNQPFKSVLNFFANNNVQLVVRLNSHLYNKKHFEDIGIQHLDLIFEDGTCPDLSIVKNFVGAAETIIKRGGKIAVHCKAGLGRTGCLIGAHLIYTYGFTANECIGFLRFIRPGMVVGPQQHWLYLHQNDFREWKYTTRISLKPSEAIGGLYPLISLEEYRLQKKKLKDDKRVAQNNIEGELRDLTMTPPSNGHGALSARNSSQPSTANNGSNSFKSSAVPQTSPGQPRKGQNGSNTIEDINNNRNPTSHANRKVVIESNNSDDESMQDTNGTSNHYPKVSRKKNDISSASSSRMEDNEPSATNINNAADDTILRQLLPKNRRVTSGRRTTSAAGGIRKISGSIKK
